# Measurements taken from the DeepSol protein solubility set.
# Test: soluble on expression in E. coli; label from the status in PepcDB or PDB records
row,Sequence,soluble on expression in E. coli
1,MPIHSLSLAGFRSIRKLTLELDALNVVVGANGCGKSNLYKSIQLLHAAAEGGLSAALAAEGGAQKAMWAGGTRRGDKARVPKRMILSARLDDYDYELQLGYPEPSCSLFALDPLVKEESLWLAGHGRRPSTLLLERRNQAAFLCGVEGERNSYPASLRAEESLFGQLAEPHRYPELSQVRETLRNWRFYHEFAIWPGSPLRAPQVGIRSPVLAHDGANLAAAFQTIVEIGDHELLHSVLTDAFPDSRFLVDAQQGRFQMLMRRDGLLRPLEAAELSDGTLRFLCLAVALLSPRPPAFMALNEPENSLHPALLPALARLIAEASRHSQLWVTSHSPELAERIRRHRPLKTFQLSLRDGETVLQDDLEHHHHHH,not soluble
2,MPIILEKGQKIDLTKGQPKVAKLQVGLGWDPIGQSGGFLSSLFGSKPNVDCDASVVMLEGDRFLNKNDLVYFGNKLSTCGSIIHSGDNLTGEGAGDDETIFVELHKVPSRINRLVFVVNIYDCVNRRQDFGMIRNAYIRIQNPQTGEELARYNLSDNYAGKTTLIAGEMYRHGSEWKFSAVGEGTQDKNLSEIVSRYQ,not soluble
3,MPIIRPEELPKLMRTISMSNLSIPTRCLLEWQLLTLIRPAEASATAWSEIDIENKQWCIPAERMKAKRDHIVPLSEQALELLEIMRPISGNRQYVFPSRNDPRKPMNSQTANAALKRIGYSGKLVAHGLRSIASTAMNEAGFNADVIEAALAHSDKLEHHHHHH,not soluble
4,MPILEEPHESRTITLPPRPARLGGRCDVLVVGGGPAGFAAAVGAADAGADTVLVERYGFLGGNATAALVMPLMSFHNEHKQAAFTEAGDTSRLLPTDHGEGEPVVAGVLWQLLDRLTGRGGCLPPSPKTGYTVPFDPELFKFCLLEMADESGVRMLFHSFASGALPLDDGPGWRVVFETKSGPVVIDAGVVVDGTGDGDVAAACGAPYEVGRPEDGLVQPMTLMFRVADFARPDFAAYVREHPDQWRGVHGLWDLIEEARKNGELRLPREDILFFATPHPHEVAVNSTRVNRVLGTSVWDLTRAEYTARHQLAEIDRFLRTRVPGFEESYVVQSGTHVGVRESRRVVGDHRLTGHDILAARTFPDVIAHGAYPVDIHNPRGSGTVLKRVPRGSFYDIPLRCLLPRDTDRLLVAGRCISGTHVAHSSYRVMPIAMATGHAAGVCAALTVRHGSGPRGLPYRLVQRELLRQGARLRTEPHLEHHHHHH,not soluble
5,MPIMLEDYQKNFLELAIECQALRFGSFKLKSGRESPYFFNLGLFNTGKLLSNLATAYAIAIIQSDLKFDVIFGPAYKGIPLAAIVCVKLAEIGGSKFQNIQYAFNRKEAKDHGEGGIIVGSALENKRILIIDDVMTAGTAINEAFEIISNAKGQVVGSIIALDRQEVVSTDDKEGLSATQTVSKKYGIPVLSIVSLIHIITYLEGRITAEEKSKIEQYLQTYGASA,soluble
6,MPISELEKKWTGLTFEIAAEEMRRLKSEPTDRERLKLYALYKQALHGDIPNEDVYPVPAGDEVGRKKYAAWKSQKGANSEKCRADYVAIAEEMIKKYGRNIVRCKWNSEVWSVDY,soluble
7,MPISTPQEIIEDIRQGKMVILMDDEDRENEGDLIMAAEHITPAAINFMATHGRGLICLTLTKERCRRLGLNPMVQDNNAQYTTNFTVSIEAAEGVTTGISAADRARTVQAAVAKEAKAADLVQPGHIFPLAAQDGGVLTRAGHTEAGCDLARLAGLEPASVIVEILNDDGTMARRPDLEVFAEKHGLKLGTIADLIEYRNHTETTIERVAQCKLPTEYGEFELVTYRDIIDKQIHFALRKGDITSAPTLVRVHLQDTFTDLLHSNRAAERSWPLATAMQRIGQEGGVLVILGHEESSELLLHRVKMFELQDKGEAPAMAKKQGTSRRVGVGSQILADLGVKEMRLLSSPNKKYHALGGFGLNVVEYVCE,not soluble
8,MPIWNHNTAYRPWLVSKLKGSRSLLDVGSGDHSFADLAGRQVAHVDVVDPLINTTFEEFQPTQSYDAITFIASLHHMNAEEGLNKAVRILNPGGKLLIVGLAKNKTASDWIISGLQAFLSRPISLINREQQIYPFPTKEPSESLHEIRQLTKQLLPHRRIRRGIHFRYLLEWTKPLEHHHHHH,not soluble
9,MPKETFYNLSEEKRQRIINSAEKEFFRVPLSKASIANIVTGAQIPRGSFYQYFDDLNDLYHYFFEKKFQGFHENFKKELENHQGDLIEAWRQVAKKVLRRIVNSENSIFFENAIFGLNIQRDQNIIDSFANFHHPENKAPEYFDEIDFSFLKIKSKKDLITLRHIMSGIIIQAATAYFSKCDSGQKVDLEEILEGIDKQIDWLKYGVYKEKEHD,not soluble
10,MPKLPLLLSFPLLFFASFAYADEDFVTCYSVLKFINANDGSRLHSHDVKYGSGSGQQSVTAVKNSDDINSHWQIFPALNAKCNRGDAIKCGDKIRLKHLTTGTFLHSHHFTAPLSKQHQEVSAFGSEAESDTGDDWTVICNGDEWLESEQFKLRHAVTGSYLSLSGQQFGRPIHGQREVVGTDSITGGSAWKVAEGIYIKHQQKDL,soluble
11,MPKYYCDYCDTFLTHDSPSVRKTHNGGRKHKDNVRMFYQKWMEDQAQKLVDQTARAFATNRMQGAVPRTTMGMAPVPPVGHHPMMGGPPGMPMMAPRPFPGPGVGFPGAPGMPPFPGGPMGMAGPPGMPPMMPRPPQQFRPM,not soluble
12,MPLADIADVDIDPKGVFKYILIQVTDNSTKQQKFVVRGYYRCSFHDDILQETKSSAPSDLKLKCVGGGRIKHDEIGKDILVYGYSYGYGRADHQIAVDILKQKYPDYNIHFSNDGY,not soluble
13,MPLALDDGDVNLSELRAFDLLGRCETGSIVNTVSLSSTGNYLAAGGFDHKVYYYDSRGTQLWNYTTGDIVYTVSISSDGSRIAAGSNDRKVYFFNREGELLWSRKTGGNINSVAVSSEGLYIATGGEDGKVYFLDKDGKLLWSFNSGDAVRSVAISRDGDYVLEHHHHHH,not soluble
14,MPLDPICKKIISRDTEYFSDYGGKNYYFCSSECKHKFDALEKSVIRLKRNLSEKEKISFGKLKRDIIKPGICTLCGACAASCEYITIKDEKPELIGPCKACGVCYYQCPRTITTEEGLIGSFRYAYAAQSAIPEIKGQDGGVVTSLLLYALDEGLIDCAVVTVHSEEEPWKPVPIVAKTREEILKSSGSIYSHSMTLEALMSAVKQGMNSVAFVGTSCNIDAVTKMQKSSYGFLHLFMRAKVLKLGLFCMDTFAYEGIKAVLESYGITLDNVDAMKIRKGKFEVALKDGKEHIFELSEFDEYRSSSCRFCTDLTAENSDISFGGVGSPRGYTTVLARSAIGYEIFNEAIDNGYIEARQLTDDELEKVLNLAKMKKVQMYDLHRRQKTLEHHHHHH,not soluble
15,MPLEASELKPTAGPLEASELKPTAGPLEASELKPTAGPLEASELKPTAGPLEASELKPTAGPLEASELKPTAGPLEASELKPTAGMTDAFIFENKKAAFLTLGCKLNFAETSTIGKALAEQGVRPVREGEKADICVINTCSVTELADKKCRNAIRKLHKEHPGALMIVTGCYAQLKPEEIARIDGVDIVLGADEKLDLVSILSQRPIQGFAEQTILTTPTKDIRKFQPGCSADDRTRHFLKVQDGCDYHCSYCTIPKARGRSRNGSIESLVRQAEAVAAEGGKEIVLTGVNIGDFGRSTGETFLDLLRALDQVEGIERYRIGSIEPNLLSDELIDFCASAHRIAPHFHMPLQSGSDDVLKLMRRRYDTALFRERVEHIRRALPHAFIGIDVIVGTRGEKPEFFEDCYSFLQDKISFSRLHVFSYSERPGTQALQIPYKVDAREKQRRSRRLLDLSDLRLAEFYRSQEGTHRRVLWEDVCHEGLMQGFTENYIRVAAPYAADSVGKVEEIVLGKTDPSGEYVQTADTIFPLEHHHHHH,soluble
16,MPLGLGRRKKAPPLVENEEAEPGRGGLGVGEPGPLGGGGSGGPQMGLPPPPPALRPRLVFHTQLAHGSPTGRIEGFTNVKELYGKIAEAFRLPTAEVMFCTLNTHKVDMDKLLGGQIGLEDFIFAHVKGQRKEVEVFKSEDALGLTITDNGAGYAFIKRIKEGSVIDHIHLISVGDMIEAINGQSLLGCRHYEVARLLKELPRGRTFTLKLTEPRKAFDMISQRSAGGRPGSGPQLGTGRGTLRLRSRGPATVEDLPSAFEEKAIEKVDDLLESYMGIRDTELAATMVELGKDKRNPDELAEALDERLGDFAFPDEFVFDVWGAIGDAKVGRYLEHHHHHH,not soluble
17,MPLTKRAVSPVNLSRGTIPSTIHRDELQCTANGTIANLVRQLSSLSKHAENIFGEIYHDAMIINHKSNTLQQRIDRLHKKVEDLDSNSDQATLNEANMRKAFKSSMLVDQHILDRSTLPTALTEIYAKCDPPPDLDALNPYRDSEIPALSLYTNPSFFFDLWKKETLKEVAERPRRVKSPNDGSKSPKKRRKQPGQGPLGTTAYNDMQHRNRQISGSRINQQNEVFSFPEEYQAPQALGLQLNFKNQHPSNMVAPIGMTMHHHPQQNVHPSQQRGGAPAAARGSPNVKRPTEAPPPVNLDHLPPPDMSILSIDDDDDDLPPPPPPLLMNTSIVHQLPAEAPSTIQFVEPSAAPPTNIPPPPPPPPPMVISSAAASFAAPAPKPSADGEAAGTNSPVAPKQPDARSDLLAQIQSGIKLKKVQRAEAEAAENAALEANNVAAILKRRMDQVMGNDDSSSEEGADDDEWDD,not soluble
18,MPMTLDLQPGQRLARGVARHLRAHGFVSVEEFVPARGLRVDVMGLGPKGEIWVIECKSSRADFQADAKWQGYLEWCDRYFWAVDMEFPAELLPAESGLLIADAYDAEIVRMAPEQKLAPARRKVLIQKFATHAARRLQALRDPEGHG,not soluble
19,MPNHQPVKKFKIIGGACKGLGLNLPNISSTRPTKAIVRESFFNTLQAEINGAHFIEVFSGSASMGLEALSRGAKSAVFFEQNKSAYKTLLENISLFKNRLKKEMEIQTFLDDAFKLLPTLCLKNGVLNIIYLDPPFETSGFLGIYEKCFQALERLLKRFNPKNLLVVFEHESMHEMPKSLVTLAIIKQKKFGKTTLTYFQLEHHHHHH,soluble
20,MPNIDNVFSIYAGQLELLRQNGLIERTGEYICPICLNSFNKEQLNKLSMEDAPQASLGGKKIAITCKKCNNTCGHETDIHLVNFITYLEEQEFLPGSNRRVKIFDDETTINANLEVGNTKELKMIIPNKINNPKALTNHLSKLTVGGIIDIQNHPLKIDMKKVSTAILKNAYIILFARFGYSFLLNSFYDRIREQILNPAKHIIPESLWTKQTSISVKDGIYFSNSNVYRGFFIIYSLTKLRTHHFCICIPTPQVYFEAIAYYFREYKAGIPIYMMGSDGIDYFQNIDNIKALNKWLVNWSLGSPV,not soluble
21,MPNYDATHATSTETIHYVNEDGDQVFEDGGGKLDFTRTVTIDDVTNEVVEYGEWTPVTDDEFAAVTSPDKDGYTPDTSEVAAQKPDMTDGPDGTVKDVEVTVTYTANPAVATITYVDDDENGKTVKTLEHHHHHH,soluble
22,MPPPSPLHLDPIEEAHRQWTKHGWGDVADGMAAVTSVMRAQQIMMARVEEVLKPSGLTFARYELLTLLTFTRTGALPMAKASARLQVHPTSVTNAVDRLETANLVRRVPHPSDRRATLIEITDAGRKLAVESTERLNAQVFSRPGVSGDKLEQLVTILAELRREAGDFDTGDAPTKW,not soluble
23,MPQALSTDILIVGGGIAGLWLNARLRRAGYATVLVESASLGGGQSVKSQGIIHGGAKYALHGALTGASEAIADMPRRWRACLGSDGELDLRGVRLLSEAHYLWSPGGLAGSLTSFFASKAVRSRVEQAKGEDLPPALRDKGFKGKAYRLTEIVFDVPDLIRRLAELAGDSLLAGERIEPLREGRELAGLCVDGREIRAQRVVLSAGAGNEALLRELGLEQPAMQRRPLHMVMVKAATLKPLYAHCLGAGPKPRITVTTHPTRDGQSVWYLGGDIAETDGVARDEAAQIAEARRELAKLLPWIDLGQAQWATLRVDRAEPAQSNLLRPDNAFLAEQGRLLVGWPTKLALAPDFADRVCARLEEDGIRPSEHAALPQLPRPPLAEPAWEVAFALEHHHHHH,not soluble
